This is an account of results in publication PMC6555819, “Comprehensive study of nuclear receptor DNA binding provides a revised framework for understanding receptor specificity”.

One data set deals with RXRa (Homo sapiens, UniProt P19793). The experiment in a line: no ligand; PBM; 180 nM; PBS pH 7.4, 2% milk, 0.02% Triton X-100, 1 mM DTT, BSA, 0.4 mg/ml salmon testes DNA. The conditions noted are these: tags: His cleaved; chain copies: 2; label: surface-attached array probe.
A further data set has as its target RARa:RXRa (Homo sapiens, UniProt P10276;P19793 full;full). The experiment in a line: no ligand; PBM; 270 nM : 90 nM RXRa; PBS pH 7.4, 2% milk, 0.02% Triton X-100, 1 mM DTT, BSA, 0.4 mg/ml salmon testes DNA. The conditions noted are these: tags: His kept;His cleaved; copies: 1;1; label: surface-attached array probe. A digest of the protocol: (§1)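 Each nuclear receptor dimer, without ligand, was incubated for 1 h on custom Agilent 4×180K protein-binding microarrays. Binding was detected with antibodies against each partner (one per run), and scanned fluorescence was regression-normalized. The binding z-scores are referenced to random human genomic background probes.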

The target in a further data set is RARg:RXRa (Homo sapiens, UniProt P13631;P19793 full;full). The description is as above. The conditions noted are these: tags: His kept;His cleaved; copies: 1;1; label: surface-attached array probe. The procedure, abridged:
as §1

The target of another data set is PPARa:RXRa (Homo sapiens, UniProt Q07869;P19793 full;full). The description is as above. Conditions: tags: GST kept;His cleaved; copies: 1;1; label: surface-attached array probe. The procedure, abridged: as §1
The target of a further data set is RARb:RXRa (Homo sapiens, UniProt P10826;P19793 full;full). The description is as above. The conditions noted are these: tags: His kept;His cleaved; copies: 1;1; label: surface-attached array probe. A digest of the protocol: as §1
Another data set addresses FXR:RXRa (Homo sapiens, UniProt Q96RI1;P19793 full;full). The description is as above. Conditions: tags: His kept;His cleaved; copies: 1;1; label: surface-attached array probe. A digest of the protocol: as §1

Chain of RXRa (P19793 whole entry): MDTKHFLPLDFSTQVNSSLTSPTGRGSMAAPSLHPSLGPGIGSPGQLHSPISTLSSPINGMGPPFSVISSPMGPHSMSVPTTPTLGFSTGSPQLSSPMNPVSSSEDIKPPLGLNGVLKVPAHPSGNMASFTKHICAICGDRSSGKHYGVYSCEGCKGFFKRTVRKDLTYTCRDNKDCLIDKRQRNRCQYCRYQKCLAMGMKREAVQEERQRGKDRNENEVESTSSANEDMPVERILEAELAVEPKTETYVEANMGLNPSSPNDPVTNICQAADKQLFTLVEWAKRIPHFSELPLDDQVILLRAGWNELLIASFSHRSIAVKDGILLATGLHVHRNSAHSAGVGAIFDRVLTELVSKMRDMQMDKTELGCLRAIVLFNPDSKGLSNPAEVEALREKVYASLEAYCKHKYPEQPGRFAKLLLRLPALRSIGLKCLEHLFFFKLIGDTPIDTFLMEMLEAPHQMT
Chain of FXR:RXRa (Q96RI1 whole entry, chain 1 of 2): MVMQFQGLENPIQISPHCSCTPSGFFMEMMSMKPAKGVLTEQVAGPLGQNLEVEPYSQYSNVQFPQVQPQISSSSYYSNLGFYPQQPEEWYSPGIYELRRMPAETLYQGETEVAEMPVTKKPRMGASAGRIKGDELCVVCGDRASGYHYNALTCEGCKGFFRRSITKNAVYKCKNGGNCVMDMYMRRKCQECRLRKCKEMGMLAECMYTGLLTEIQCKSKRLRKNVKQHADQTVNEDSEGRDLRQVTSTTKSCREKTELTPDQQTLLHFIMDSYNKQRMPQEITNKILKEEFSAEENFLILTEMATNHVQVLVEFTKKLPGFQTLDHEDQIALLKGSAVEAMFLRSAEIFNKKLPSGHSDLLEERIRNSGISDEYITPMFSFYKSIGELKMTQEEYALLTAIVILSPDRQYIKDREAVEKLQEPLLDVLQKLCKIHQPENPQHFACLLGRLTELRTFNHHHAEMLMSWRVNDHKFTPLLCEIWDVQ
Chain of FXR:RXRa (P19793 whole entry, chain 2 of 2): as the sequence (P19793 whole entry) above
Chain of RARa:RXRa (P10276 whole entry, chain 1 of 2): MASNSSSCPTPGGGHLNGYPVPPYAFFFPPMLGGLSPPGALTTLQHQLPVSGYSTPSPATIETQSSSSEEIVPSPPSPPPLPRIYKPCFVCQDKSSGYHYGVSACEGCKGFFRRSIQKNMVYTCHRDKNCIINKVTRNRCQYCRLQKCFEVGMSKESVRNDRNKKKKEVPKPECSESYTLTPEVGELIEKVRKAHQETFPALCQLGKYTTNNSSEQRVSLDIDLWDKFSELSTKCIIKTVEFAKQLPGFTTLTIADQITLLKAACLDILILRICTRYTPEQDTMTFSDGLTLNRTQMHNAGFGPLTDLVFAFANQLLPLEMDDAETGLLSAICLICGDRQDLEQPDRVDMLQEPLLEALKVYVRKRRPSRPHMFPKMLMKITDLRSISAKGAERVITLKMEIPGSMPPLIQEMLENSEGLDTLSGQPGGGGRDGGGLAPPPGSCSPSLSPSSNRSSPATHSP
Chain of RARa:RXRa (P19793 whole entry, chain 2 of 2): as the sequence (P19793 whole entry) above
Chain of RARb:RXRa (P10826 whole entry, chain 1 of 2): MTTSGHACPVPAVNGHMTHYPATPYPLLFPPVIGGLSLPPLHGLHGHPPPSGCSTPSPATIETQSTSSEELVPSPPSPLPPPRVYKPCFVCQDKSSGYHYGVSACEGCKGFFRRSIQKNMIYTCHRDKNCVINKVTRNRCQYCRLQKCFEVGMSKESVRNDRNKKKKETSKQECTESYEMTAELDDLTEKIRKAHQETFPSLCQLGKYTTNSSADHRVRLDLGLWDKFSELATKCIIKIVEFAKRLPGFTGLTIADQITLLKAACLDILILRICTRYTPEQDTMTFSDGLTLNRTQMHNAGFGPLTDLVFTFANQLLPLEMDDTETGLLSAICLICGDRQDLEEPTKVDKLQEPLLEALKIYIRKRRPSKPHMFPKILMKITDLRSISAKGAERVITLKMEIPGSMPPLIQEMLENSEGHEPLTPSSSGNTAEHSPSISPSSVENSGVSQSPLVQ
Chain of RARb:RXRa (P19793 whole entry, chain 2 of 2): as the sequence (P19793 whole entry) above
Chain of PPARa:RXRa (Q07869 whole entry, chain 1 of 2): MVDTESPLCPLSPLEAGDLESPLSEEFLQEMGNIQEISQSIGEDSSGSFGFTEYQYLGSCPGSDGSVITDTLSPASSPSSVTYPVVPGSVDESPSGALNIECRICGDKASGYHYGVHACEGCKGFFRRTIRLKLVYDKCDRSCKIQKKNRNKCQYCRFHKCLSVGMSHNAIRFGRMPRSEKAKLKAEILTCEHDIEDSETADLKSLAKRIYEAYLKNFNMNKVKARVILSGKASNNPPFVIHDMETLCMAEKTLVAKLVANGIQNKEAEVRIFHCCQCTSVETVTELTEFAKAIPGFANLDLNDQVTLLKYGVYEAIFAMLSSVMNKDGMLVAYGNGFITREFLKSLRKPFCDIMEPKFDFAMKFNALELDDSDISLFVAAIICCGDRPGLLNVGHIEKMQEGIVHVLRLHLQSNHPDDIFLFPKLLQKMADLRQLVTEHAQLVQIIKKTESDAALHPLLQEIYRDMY
Chain of PPARa:RXRa (P19793 whole entry, chain 2 of 2): as the sequence (P19793 whole entry) above
Chain of RARg:RXRa (P13631 whole entry, chain 1 of 2): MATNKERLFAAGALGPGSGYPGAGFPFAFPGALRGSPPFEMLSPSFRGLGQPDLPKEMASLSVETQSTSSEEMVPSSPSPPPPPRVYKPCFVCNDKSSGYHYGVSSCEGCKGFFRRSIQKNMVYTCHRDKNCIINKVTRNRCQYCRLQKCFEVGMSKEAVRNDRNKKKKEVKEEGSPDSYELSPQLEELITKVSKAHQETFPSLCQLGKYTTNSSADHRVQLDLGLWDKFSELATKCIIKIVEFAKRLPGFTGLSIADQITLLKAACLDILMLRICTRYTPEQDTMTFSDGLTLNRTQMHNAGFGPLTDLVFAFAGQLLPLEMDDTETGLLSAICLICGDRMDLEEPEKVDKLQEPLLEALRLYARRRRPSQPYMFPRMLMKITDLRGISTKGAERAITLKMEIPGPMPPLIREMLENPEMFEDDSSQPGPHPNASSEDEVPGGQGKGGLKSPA
Chain of RARg:RXRa (P19793 whole entry, chain 2 of 2): as the sequence (P19793 whole entry) above

B1: NRC3_random_hg19_386_o1 (dsDNA)
DNA 1: GCTCCCTTCCCTTCCCTTCCCTTCCCACAACCACTGGCGATTGACAGCGTAGAATGAAGG
DNA 2: CCTTCATTCTACGCTGTCAATCGCCAGTGGTTGTGGGAAGGGAAGGGAAGGGAAGGGAGC
Turning to B1, the binding signal in the data set with RXRa was -0.1 PBM z-score against 500 random probes; with RARa:RXRa it was 0.49 PBM z-score against 500 random probes; with RARg:RXRa, -0.29 PBM z-score against 500 random probes.

B2: NRC3_wobSeed36_DR1_G12T_o1 (dsDNA)
DNA 1: GCCCGACTGGGTCAAAGGTTACCATACTCAGTACGAGCGATTGACAGCGTAGAATGAAGG
DNA 2: CCTTCATTCTACGCTGTCAATCGCTCGTACTGAGTATGGTAACCTTTGACCCAGTCGGGC
Take B2: the binding signal in the data set with RXRa was 7.96 PBM z-score against 500 random probes; with RARa:RXRa, 7.7 PBM z-score against 500 random probes; with PPARa:RXRa it was 6.73 PBM z-score against 500 random probes.

B3: NRC3_random_hg19_403_o1 (dsDNA)
DNA 1: GCATCTCCTGCCTCAGCCTCCTGAATAGGTGGGACTGCGATTGACAGCGTAGAATGAAGG
DNA 2: CCTTCATTCTACGCTGTCAATCGCAGTCCCACCTATTCAGGAGGCTGAGGCAGGAGATGC
B3: the binding signal with RARa:RXRa was -0.6 PBM z-score against 500 random probes; with RARb:RXRa, -1.01 PBM z-score against 500 random probes.

B4: NRC3_wobSeed51_DR2_G23A_o1 (dsDNA)
DNA 1: GCCCTCGGAGGACAGAAGGTCAAAGCTGTCCGCTTTGCGATTGACAGCGTAGAATGAAGG
DNA 2: CCTTCATTCTACGCTGTCAATCGCAAAGCGGACAGCTTTGACCTTCTGTCCTCCGAGGGC
Regarding B4, the binding signal with RARa:RXRa is 3.96 PBM z-score against 500 random probes; in the data set with FXR:RXRa, 3.12 PBM z-score against 500 random probes.

B5: NRC3_random_hg19_476_o1 (dsDNA)
DNA 1: GCACAGCAAAGAGGCCAGCATGGCTAGAGCAGATCAGCGATTGACAGCGTAGAATGAAGG
DNA 2: CCTTCATTCTACGCTGTCAATCGCTGATCTGCTCTAGCCATGCTGGCCTCTTTGCTGTGC
With B5, the binding signal with RXRa was -0.29 PBM z-score against 500 random probes; in the data set with RARa:RXRa it was -0.83 PBM z-score against 500 random probes.

B6: NRC3_random_hg19_84_o1 (dsDNA)
DNA 1: GCGTAAGACACCTTCCTAGGAAGAGAACAGCAGAATGCGATTGACAGCGTAGAATGAAGG
DNA 2: CCTTCATTCTACGCTGTCAATCGCATTCTGCTGTTCTCTTCCTAGGAAGGTGTCTTACGC
Regarding B6, the binding signal in the data set with RXRa is -0.13 PBM z-score against 500 random probes; with RARa:RXRa it was -0.2 PBM z-score against 500 random probes; with FXR:RXRa it was -0.49 PBM z-score against 500 random probes.

B7: NRC3_wobSeed2_DR0_G17C_o1 (dsDNA)
DNA 1: GCCCTAGTTGGTCAAGCTCACACACGCTATAGGTACGCGATTGACAGCGTAGAATGAAGG
DNA 2: CCTTCATTCTACGCTGTCAATCGCGTACCTATAGCGTGTGTGAGCTTGACCAACTAGGGC
As for B7, the results for the binding signal in the data set with RXRa and with RARa:RXRa were 0.35 PBM z-score against 500 random probes and 0.43 PBM z-score against 500 random probes, respectively.

B8: NRC3_random_hg19_214_o1 (dsDNA)
DNA 1: GCATCCGTTCCTTGGAGGGAGTCTGCAGACTGGCTGGCGATTGACAGCGTAGAATGAAGG
DNA 2: CCTTCATTCTACGCTGTCAATCGCCAGCCAGTCTGCAGACTCCCTCCAAGGAACGGATGC
As for B8, the binding signal with RARa:RXRa was -2.33 PBM z-score against 500 random probes; with FXR:RXRa, -0.76 PBM z-score against 500 random probes.

B9: NRC3_wobSeed28_DR1_T8G_o1 (dsDNA)
DNA 1: GCCCTACGGGGCCAAAGGTCATTGATTCCAATGCTCGCGATTGACAGCGTAGAATGAAGG
DNA 2: CCTTCATTCTACGCTGTCAATCGCGAGCATTGGAATCAATGACCTTTGGCCCCGTAGGGC
Regarding B9, the results for the binding signal with RXRa and with RARa:RXRa were 7.78 PBM z-score against 500 random probes and 7.56 PBM z-score against 500 random probes, respectively.

B10: NRC3_wobSeed53_DR2_A17G_o1 (dsDNA)
DNA 1: GCCCTTACGGGTCACGGGGTTATAGCACGACGAGCGGCGATTGACAGCGTAGAATGAAGG
DNA 2: CCTTCATTCTACGCTGTCAATCGCCGCTCGTCGTGCTATAACCCCGTGACCCGTAAGGGC
As to B10, the binding signal was 8.24 PBM z-score against 500 random probes in the data set with RXRa and 7.46 PBM z-score against 500 random probes with RARa:RXRa.

B11: NRC3_wobSeed34_DR1_G20C_o1 (dsDNA)
DNA 1: GCATCGAAAGGTCGAAGGTCAGTATACCCACCCGAAGCGATTGACAGCGTAGAATGAAGG
DNA 2: CCTTCATTCTACGCTGTCAATCGCTTCGGGTGGGTATACTGACCTTCGACCTTTCGATGC
Regarding B11, the binding signal with RXRa is 7.85 PBM z-score against 500 random probes; with RARa:RXRa it was 7.04 PBM z-score against 500 random probes.

B12: NRC3_wobSeed140_DR5_A9G_o1 (dsDNA)
DNA 1: GCAGAATGGGGTTATACGTAGATCAGGGAAGAAAGTGCGATTGACAGCGTAGAATGAAGG
DNA 2: CCTTCATTCTACGCTGTCAATCGCACTTTCTTCCCTGATCTACGTATAACCCCATTCTGC
Consider B12, for which the binding signal with RARa:RXRa was 3.3 PBM z-score against 500 random probes; with FXR:RXRa, 4.21 PBM z-score against 500 random probes.

B13: NRC3_wobSeed45_DR1_A20G_o1 (dsDNA)
DNA 1: GCTGTCAAAGTTCAAAGGTGACGTAAGTATCCACACGCGATTGACAGCGTAGAATGAAGG
DNA 2: CCTTCATTCTACGCTGTCAATCGCGTGTGGATACTTACGTCACCTTTGAACTTTGACAGC
B13: the binding signal is 8.27 PBM z-score against 500 random probes in the data set with RXRa, 7.89 PBM z-score against 500 random probes with RARa:RXRa and 7.78 PBM z-score against 500 random probes in the data set with FXR:RXRa.

B14: NRC3_wobSeed82_DR3_T27A_o1 (dsDNA)
DNA 1: GCATCGAAAGGTCGACGAGGTGAGTAAACACCGTTTGCGATTGACAGCGTAGAATGAAGG
DNA 2: CCTTCATTCTACGCTGTCAATCGCAAACGGTGTTTACTCACCTCGTCGACCTTTCGATGC
For B14, the binding signal with RARa:RXRa was 3.55 PBM z-score against 500 random probes; with FXR:RXRa, 4.45 PBM z-score against 500 random probes.

B15: NRC3_random_hg19_254_o1 (dsDNA)
DNA 1: GCGCCTCTGGAATGTAAACTCCAGCCTGGCATGTATGCGATTGACAGCGTAGAATGAAGG
DNA 2: CCTTCATTCTACGCTGTCAATCGCATACATGCCAGGCTGGAGTTTACATTCCAGAGGCGC
With B15, the binding signal was -0.5 PBM z-score against 500 random probes in the data set with RARa:RXRa and -0.34 PBM z-score against 500 random probes in the data set with RARb:RXRa.

B16: NRC3_random_hg19_398_o1 (dsDNA)
DNA 1: GCAAGAAACAACAAACTTAGTACCTAGAAACAAGAGGCGATTGACAGCGTAGAATGAAGG
DNA 2: CCTTCATTCTACGCTGTCAATCGCCTCTTGTTTCTAGGTACTAAGTTTGTTGTTTCTTGC
As to B16, the values for the binding signal with RARa:RXRa and with RARb:RXRa were 0.12 PBM z-score against 500 random probes and -0.22 PBM z-score against 500 random probes, respectively.

B17: NRC3_wobSeed130_DR5_C13G_o1 (dsDNA)
DNA 1: GCCTCGAAAGGTGGTGCTCAGGTGAGTATACCAAACGCGATTGACAGCGTAGAATGAAGG
DNA 2: CCTTCATTCTACGCTGTCAATCGCGTTTGGTATACTCACCTGAGCACCACCTTTCGAGGC
As for B17, the binding signal was -0.07 PBM z-score against 500 random probes with RXRa, 0.34 PBM z-score against 500 random probes with RARa:RXRa and 0.16 PBM z-score against 500 random probes with PPARa:RXRa.

B18: NRC3_random_hg19_304_o1 (dsDNA)
DNA 1: GCGGCTGTTAGCGCTCATCTCTGTGTGCCTTCACAGGCGATTGACAGCGTAGAATGAAGG
DNA 2: CCTTCATTCTACGCTGTCAATCGCCTGTGAAGGCACACAGAGATGAGCGCTAACAGCCGC
As to B18, the binding signal was -1 PBM z-score against 500 random probes with RARa:RXRa and -1.19 PBM z-score against 500 random probes in the data set with RARb:RXRa.

B19: NRC3_random_hg19_243_o1 (dsDNA)
DNA 1: GCCAAATGCTAGCAGAAGGCAAGAAACAACTAAGATGCGATTGACAGCGTAGAATGAAGG
DNA 2: CCTTCATTCTACGCTGTCAATCGCATCTTAGTTGTTTCTTGCCTTCTGCTAGCATTTGGC
In the case of B19, the binding signal with RARa:RXRa is -0.38 PBM z-score against 500 random probes; in the data set with FXR:RXRa it was -0.92 PBM z-score against 500 random probes.

B20: NRC3_wobSeed134_DR5_G26A_o1 (dsDNA)
DNA 1: GCGCTGCTAGGTCAACTGATGGTCAACTAAAGCTCGGCGATTGACAGCGTAGAATGAAGG
DNA 2: CCTTCATTCTACGCTGTCAATCGCCGAGCTTTAGTTGACCATCAGTTGACCTAGCAGCGC
Regarding B20, the binding signal was 3.74 PBM z-score against 500 random probes with RARa:RXRa and 4.04 PBM z-score against 500 random probes with FXR:RXRa.

B21: NRC3_wobSeed37_DR1_G4A_o1 (dsDNA)
DNA 1: GCCATCCAAGGTCAAAGGTCAGTGAAGAGATGACGGGCGATTGACAGCGTAGAATGAAGG
DNA 2: CCTTCATTCTACGCTGTCAATCGCCCGTCATCTCTTCACTGACCTTTGACCTTGGATGGC
B21: the binding signal in the data set with RARa:RXRa was 9.27 PBM z-score against 500 random probes; with RARb:RXRa, 6.38 PBM z-score against 500 random probes; with PPARa:RXRa it was 7.54 PBM z-score against 500 random probes.

B22: NRC3_wobSeed37_DR1_T5G_o1 (dsDNA)
DNA 1: GCCGGCCAAGGTCAAAGGTCAGTGAAGAGATGACGGGCGATTGACAGCGTAGAATGAAGG
DNA 2: CCTTCATTCTACGCTGTCAATCGCCCGTCATCTCTTCACTGACCTTTGACCTTGGCCGGC
Regarding B22, the binding signal is 10.7 PBM z-score against 500 random probes in the data set with RXRa and 9.26 PBM z-score against 500 random probes in the data set with RARa:RXRa.

B23: NRC3_random_hg19_429_o1 (dsDNA)
DNA 1: GCTTAGTGAAGTGAAGGTTGCTTTCTACTCATTTGAGCGATTGACAGCGTAGAATGAAGG
DNA 2: CCTTCATTCTACGCTGTCAATCGCTCAAATGAGTAGAAAGCAACCTTCACTTCACTAAGC
For B23, the results for the binding signal with RXRa and with RARa:RXRa were -0.28 PBM z-score against 500 random probes and 0.08 PBM z-score against 500 random probes, respectively.
